From article PMC3098377, “CpG Islands Recruit a Histone H3 Lysine 36 Demethylase”

Experiments:
[1] = system: KDM2A 1-747 (human); experiment: SPR; conditions: EMSA: 4% Ficoll 400, 20 mM Hepes pH 7.9, 150 mM KCl, 1 mM EDTA, 0.5 mM DTT, 25 ng/ul poly-dAdT, room temperature, 0.8% agarose gel 0.5x TBE 4 C; SPR: 10 mM …
[2] = molecular target: T1, KDM2A ZF-CxxC domain (human, UniProt Q9Y2K7 544-648); experiment: EMSA; EMSA: 4% Ficoll 400, 20 mM Hepes pH 7.9, 150 mM KCl, 1 mM EDTA, 0.5 mM DTT, 25 ng/ul poly-dAdT, room temperature, 0.8% agarose gel 0.5x TBE 4 C; SPR: 10 mM Hepes pH 7.9, 150 mM NaCl, 1 mM DTT, further additive truncated in material, KDM2A 0-3 uM; conditions: protein: recombinant; tags: His (pET30b); label: 32P 5' end; blunt
T1 sequence: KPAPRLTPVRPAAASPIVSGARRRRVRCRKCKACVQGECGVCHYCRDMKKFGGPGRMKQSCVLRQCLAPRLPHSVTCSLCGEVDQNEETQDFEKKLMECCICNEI

75 bp probe, 1 CpG
Kd [1]: 640 nM

75 bp probe, 6 CpG
Kd [1]: 560 nM

B1: short probe, CpGs methylated (dsDNA)
DNA 1: GTAGGCGGTGCTACACGGTTCCTGAAGTG
DNA 2: CACTTCAGGAACCGTGTAGCACCGCCTAC
modifications: CpG methylated (5mC); strands and method not stated
binding result [2]: no binding

B2: short probe with two CpGs (dsDNA)
DNA 1: GTAGGCGGTGCTACACGGTTCCTGAAGTG
DNA 2: CACTTCAGGAACCGTGTAGCACCGCCTAC
binding result [2]: binds
